For one molecule, binding signal results are on record in patent US20260009052, “CAS12 PROTEINS AND USES THEREOF” (GUANGZHOU REFORGENE MEDICINE CO., LTD., published 2026).

The target in series [1] is T1, C12-279 (synthetic construct).
T1 chain: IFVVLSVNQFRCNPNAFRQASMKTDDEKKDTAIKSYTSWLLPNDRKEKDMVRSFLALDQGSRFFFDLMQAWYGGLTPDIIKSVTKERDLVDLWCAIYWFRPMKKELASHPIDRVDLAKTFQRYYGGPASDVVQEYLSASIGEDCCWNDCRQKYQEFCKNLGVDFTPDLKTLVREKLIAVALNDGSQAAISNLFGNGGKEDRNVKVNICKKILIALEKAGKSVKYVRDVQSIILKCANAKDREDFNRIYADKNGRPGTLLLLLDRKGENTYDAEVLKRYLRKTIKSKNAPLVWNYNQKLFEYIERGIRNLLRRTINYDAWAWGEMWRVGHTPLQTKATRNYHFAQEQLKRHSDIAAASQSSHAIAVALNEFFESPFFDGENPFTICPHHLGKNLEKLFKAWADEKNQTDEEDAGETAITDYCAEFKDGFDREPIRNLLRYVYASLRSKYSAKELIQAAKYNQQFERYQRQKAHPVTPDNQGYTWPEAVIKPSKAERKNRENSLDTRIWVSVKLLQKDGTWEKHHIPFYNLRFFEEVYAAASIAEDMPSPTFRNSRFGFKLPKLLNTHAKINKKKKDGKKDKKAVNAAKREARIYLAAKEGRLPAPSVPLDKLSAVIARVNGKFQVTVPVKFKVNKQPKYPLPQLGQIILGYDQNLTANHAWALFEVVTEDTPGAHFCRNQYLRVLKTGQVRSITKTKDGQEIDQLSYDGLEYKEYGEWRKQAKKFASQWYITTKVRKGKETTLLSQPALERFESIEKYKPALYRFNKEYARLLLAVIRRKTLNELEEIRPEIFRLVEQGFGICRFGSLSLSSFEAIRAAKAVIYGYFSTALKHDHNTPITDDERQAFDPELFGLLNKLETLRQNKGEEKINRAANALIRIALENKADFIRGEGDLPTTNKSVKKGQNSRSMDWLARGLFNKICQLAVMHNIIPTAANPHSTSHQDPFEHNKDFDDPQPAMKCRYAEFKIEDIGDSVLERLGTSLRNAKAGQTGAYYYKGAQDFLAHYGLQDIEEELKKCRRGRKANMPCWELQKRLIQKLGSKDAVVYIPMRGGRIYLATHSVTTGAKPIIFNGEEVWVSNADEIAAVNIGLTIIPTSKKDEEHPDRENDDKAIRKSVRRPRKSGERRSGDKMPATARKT
As to the kind of experiment: cell_activity; PAM TTG; GFP reporter. To be noted: tags: NLS.

In series [2] the target is T2, C12-279 Q186R (Mut-01) (synthetic construct, Q186R).
T2 chain: T1 chain with Q186R
As to the kind of experiment: cell_activity; PAM TTG; +/-0.32. As for the experimental part:
Transfection: transfection was performed 12-14 h after plating. 1.5 μL PEI (Yeasen Biotechnology, 40815ES03, Polyethylenimine Linear (PEI) MW25000) and 500 ng mutation clone plasmid were added to 100 μL Opti-MEM per well of the 24-well plate, mixed, and added to the NAAN cell line for cell transfection after placing at room temperature for 20 min. After overnight transfection, a fresh culture medium was replaced, and the culture was continued for 72 h, followed by flow cytometry. Editing efficiencies of different mutant clones were characterized by the proportion of GFP-positive cells.
Editing efficiency of some selected mutants was tested in Reporter3 cell line using the same manner as described for the NAAN reporter system, except that the cell line was changed from NAAN cell line to Reporter3 cell line.

Numbering of substitutions follows the chain as printed.

B1: C12-279 Reporter3 sgRNA ; Reporter3 target (ssRNA ; dsDNA)
RNA: GUAAUGCGUCUCCCAUUGACGCCUCACCUCGCGACGCAAUGAUG
DNA 1: CTCACCTCGCGACGCAATGATG
DNA 2: CATCATTGCGTCGCGAGGTGAG
Turning to B1, the binding signal in series [1] was 1 fold of C12-279; in series [2], 1.6 fold of C12-279.
